This sample holds only a part of the variants without activity.
B1: TPR 5TU (parent)
chain: GGAUCUUCUCGAUCUAACAAAAAAGACAAAUCUGCCACAAAGCUUGAGAGCAUCUUCGGAUGCAGAGGCGGCAGCCUUCGGUGGCGCGAUAGCGCCAACGUUCUCAACUAUGACACGCAAAACGCGUGCUCCGUUGAAUGGAGUUUAUCAUG

Variants of: B1
Assay: polymerase ribozyme fitness, log enrichment relative to wild type (log ratio); higher = more active; in vitro selection for triplet polymerase activity
Method in brief: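 In triplicate, a single round of in vitro selection was run on each mutant library, PCR-built and transcribed, covering one subunit of a heterodimeric triplet polymerase ribozyme. Frozen incubation at −7 °C followed annealing with a biotinylated primer, partner subunit and triplets, and extended constructs were then gel-excised, streptavidin-captured and taken through RT-PCR. Fitness is the logarithm of genotype enrichment over wild-type enrichment, from inverse-variance-weighted replicate averages of Illumina-sequenced inputs and outputs. […] only genotypes with ≥10 input reads and ≥1 read per output were kept.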

Variant | polymerase ribozyme fitness (log ratio)
G46A A49C G71U G86A C96U A97U | ≤ -4.2
G46A G67U C87A C103G U111C G140A | ≤ -4.2
U45A | -2.1
U45C | 0.188
U45G | -0.42
U45G U55G C76U G84A | -3.76
G46A U53G U56A A91C U104G G128U U146C | ≤ -4.2
A47C G136A | 0.0265
G46C A60U | -1.74
U45A G136C | ≤ -4.2
A47C G58C A97G C99G C129A G133U | ≤ -4.2
U44G U45G A97C | ≤ -4.2
G46C G83C G88C A97G | ≤ -4.2
G46C C85U | -1.16
U44A C76U C87A C105A A107G U127A U145C G152U | ≤ -4.2
U45A A91G | -4.12
U45A A91U | -3.74
U44G U55A C93A A120G | ≤ -4.2
U45G U56A G88A C93G A119G G143U | ≤ -4.2
U44C U56A | -3
G46A G124C | -1.46

Variant | polymerase ribozyme fitness (log ratio)
U45A A106C | -0.488
C43U U45G C131A G136U | ≤ -4.2
A47U G59A C96G | -1.05
G46C U55G U144A | -1.97
G48A G50U U55A | -2.15
A47G G74A | -3.67
U45A A52C A73C A91U U101C | ≤ -4.2
C43U G88A G94A A122G | ≤ -4.2
A47G C93U | -0.775
U44A U82G | ≤ -4.2
A47C G50C A52C C85G C105A G141U | ≤ -4.2
U45A C54U | -2.52
U45A C54A | ≤ -4.2
U44A C85U C87A G117U C149U | ≤ -4.2
U44C U146C | -3.77
A47U A97G C132U | -2.35
U44A G86C A120C U146C | ≤ -4.2
U45A G74A C105U | ≤ -4.2
A47C C79G | ≤ -4.2
U45A G59C C85U G86A G92U U146G | ≤ -4.2
A47C C85A C93U | ≤ -4.2

Variant | polymerase ribozyme fitness (log ratio)
U44A C95U A97U | ≤ -4.2
U44G G65A G68A | ≤ -4.2
U45A G81C C96G | -3.93
U44G C54U C87U A91U G141C G143C | ≤ -4.2
G46C A91G | -3.27
U45A G84U | ≤ -4.2
A47G C85U | -1.36
A47G U82A A89C C93U | -1.39
A47C U61A C85G C108A | ≤ -4.2
U44A G50A C93G | ≤ -4.2
A47C A60G A107U | -3.3
A47C C72U G92A | -3.53
U45G G70A G92U G94A C116G G152U | ≤ -4.2
G46C C54A C96G C103G G141U | ≤ -4.2
G46C C87A G94C U101A U134A G141U | ≤ -4.2
G46A G71C U78A | ≤ -4.2
U45A A73U C79A C93U A121G | ≤ -4.2
A47U G83A U101C G117U | -0.198
A47C C76A C87G C96U A115G | ≤ -4.2
A47C C108U U146C | -3.2
U45A A97U | -2.84

Variant | polymerase ribozyme fitness (log ratio)
U45G G92C | -2.2
A47G U53C U134G | -3.45
G46C A47C C72U C103A | ≤ -4.2
A47G C69G | -1.95
A47G C69U | -1.14
U45G G94U G100C A150C | ≤ -4.2
A47U C103G A115G G140C | ≤ -4.2
U45G G83C G117A | -1.29
A47C C54G | -1.14
U44G U55A A91U G141C | ≤ -4.2
G46A G59A | 0.222
G48A C85U C114U A122C | -2.44
U44A A47C U56A G84C C87G | ≤ -4.2
U44A U56A A64C A91U C105U C108G A110C U135G | ≤ -4.2
G46U C72U C87U | -1.01
U44G U56A | -3.19
A47C | -0.224
A47G | 0.239
A47U | -0.143
G46U U53A U90C | ≤ -4.2
A47C U77A C79A A89U | ≤ -4.2

— the RNAGym collection of RNA variant scans (doi:10.1073/pnas.2313332121)
